One experiment deals with Jun (Homo sapiens) (UniProt P05412). To be noted: cited from earlier work.
Experiment [1] concerns the target p53 proteins tested (wild type p53 and 46 common clinical mutants). Description: SPR; NAPPA-SPRi: p53 proteins with GST-E-coil translated in situ and captured by K-coil peptide on a gold slide; purified full-length MDM2 20 μg/mL injected at 3 μL/s; running buffer 1x PBS, 1% Tween 20; 1:1 fit with Scrubber 2.0; apparent constants. On the technique in general: SPR reads the build-up and loss of mass on a sensor chip optically.

The values below come from article PMC8744954.

Sequence of UniProt P05412 (P05412 whole entry): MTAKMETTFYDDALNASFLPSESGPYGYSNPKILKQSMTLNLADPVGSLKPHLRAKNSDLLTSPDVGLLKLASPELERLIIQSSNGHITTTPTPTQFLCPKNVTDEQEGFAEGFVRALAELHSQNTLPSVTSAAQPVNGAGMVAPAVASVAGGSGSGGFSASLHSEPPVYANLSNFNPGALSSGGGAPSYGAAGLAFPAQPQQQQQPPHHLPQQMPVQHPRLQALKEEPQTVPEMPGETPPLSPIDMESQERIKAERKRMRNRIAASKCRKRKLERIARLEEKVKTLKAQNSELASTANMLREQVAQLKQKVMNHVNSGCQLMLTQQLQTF

For Fos (from UniProt P01100), in the experiment with Jun (Homo sapiens), the Kd was 1 nM.

For the substance “MDM2, full-length purified recombinant (from UniProt Q00987 1-491) (natural protein)”, in experiment [1], the Kd lay within 2.85 to 1350 nM and the median KD came to 105 nM.
